Literature values, collected in article PMC8417749.

Experiments:
[1] = molecular target: CXCR2 (Homo sapiens) (UniProt P25025)
[2] = molecular target: CXCR1 (Homo sapiens) (UniProt P25024)
CXCR1 (Homo sapiens), sequence (P25024 whole entry): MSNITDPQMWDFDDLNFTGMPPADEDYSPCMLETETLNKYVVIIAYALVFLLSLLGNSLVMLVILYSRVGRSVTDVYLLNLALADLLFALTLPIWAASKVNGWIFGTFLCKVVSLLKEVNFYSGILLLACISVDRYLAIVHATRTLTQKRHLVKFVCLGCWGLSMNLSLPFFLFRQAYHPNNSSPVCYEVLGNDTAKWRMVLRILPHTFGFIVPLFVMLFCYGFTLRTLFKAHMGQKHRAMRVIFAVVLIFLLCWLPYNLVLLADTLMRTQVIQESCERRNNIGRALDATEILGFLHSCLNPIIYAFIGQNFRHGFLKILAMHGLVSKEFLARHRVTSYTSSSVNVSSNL

IL-8, sequence (P10145 28-99): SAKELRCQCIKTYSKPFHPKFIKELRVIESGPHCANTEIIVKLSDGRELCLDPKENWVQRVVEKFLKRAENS
CXCR2 (Homo sapiens), sequence (P25025 whole entry): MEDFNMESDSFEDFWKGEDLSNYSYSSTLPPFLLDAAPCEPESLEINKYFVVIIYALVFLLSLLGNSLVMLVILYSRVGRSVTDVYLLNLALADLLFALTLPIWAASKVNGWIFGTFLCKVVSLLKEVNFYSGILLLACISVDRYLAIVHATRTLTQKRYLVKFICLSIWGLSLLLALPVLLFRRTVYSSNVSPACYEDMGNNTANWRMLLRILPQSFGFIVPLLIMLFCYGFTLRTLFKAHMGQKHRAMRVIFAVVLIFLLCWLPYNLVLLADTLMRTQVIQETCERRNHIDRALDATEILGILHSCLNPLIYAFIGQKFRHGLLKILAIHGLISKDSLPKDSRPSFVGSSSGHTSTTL

Kd [1]: 2 nM
Kd [2]: 2 nM
Substance: IL-8 (from UniProt P10145)
